Results on 20 molecules are retold here after US20210388087A1 (Chugai, published 2021).

To fix the notation:
B1: H183/L072 VL M27eT (antibody, name in Kabat numbering, V domains shown)
VH: QVQLVESGGGLVQPGRSLRLSCAASGFTFSNAWMHWVRQAPGKGLEWVAQIKDKGNAYAAYYAPSVKGRFTISRDDSKNSIYLQMNSLKTEDTAVYYCHYVHYASASTVLPAFGVDAWGQGTTVTVSS
VL: DIVMTQSPLSLPVTPGEPASISCQASQELVHTNRNTYLHWYQQKPGQAPRLLIYKVSNRFPGVPDRFSGSGSGTDFTLKISRVEAEDVGVYYCAQGTSVPFTFGQGTKLEIK
B2: H183/L072 VL N28E (antibody, name in Kabat numbering, V domains shown)
VH: QVQLVESGGGLVQPGRSLRLSCAASGFTFSNAWMHWVRQAPGKGLEWVAQIKDKGNAYAAYYAPSVKGRFTISRDDSKNSIYLQMNSLKTEDTAVYYCHYVHYASASTVLPAFGVDAWGQGTTVTVSS
VL: DIVMTQSPLSLPVTPGEPASISCQASQELVHMERNTYLHWYQQKPGQAPRLLIYKVSNRFPGVPDRFSGSGSGTDFTLKISRVEAEDVGVYYCAQGTSVPFTFGQGTKLEIK
B3: H183/L072 VL N30F (antibody, name in Kabat numbering, V domains shown)
VH: QVQLVESGGGLVQPGRSLRLSCAASGFTFSNAWMHWVRQAPGKGLEWVAQIKDKGNAYAAYYAPSVKGRFTISRDDSKNSIYLQMNSLKTEDTAVYYCHYVHYASASTVLPAFGVDAWGQGTTVTVSS
VL: DIVMTQSPLSLPVTPGEPASISCQASQELVHMNRFTYLHWYQQKPGQAPRLLIYKVSNRFPGVPDRFSGSGSGTDFTLKISRVEAEDVGVYYCAQGTSVPFTFGQGTKLEIK
B4: H183/L072 VL M27eV (antibody, name in Kabat numbering, V domains shown)
VH: QVQLVESGGGLVQPGRSLRLSCAASGFTFSNAWMHWVRQAPGKGLEWVAQIKDKGNAYAAYYAPSVKGRFTISRDDSKNSIYLQMNSLKTEDTAVYYCHYVHYASASTVLPAFGVDAWGQGTTVTVSS
VL: DIVMTQSPLSLPVTPGEPASISCQASQELVHVNRNTYLHWYQQKPGQAPRLLIYKVSNRFPGVPDRFSGSGSGTDFTLKISRVEAEDVGVYYCAQGTSVPFTFGQGTKLEIK
B5: H183/L072 VL N30G (antibody, name in Kabat numbering, V domains shown)
VH: QVQLVESGGGLVQPGRSLRLSCAASGFTFSNAWMHWVRQAPGKGLEWVAQIKDKGNAYAAYYAPSVKGRFTISRDDSKNSIYLQMNSLKTEDTAVYYCHYVHYASASTVLPAFGVDAWGQGTTVTVSS
VL: DIVMTQSPLSLPVTPGEPASISCQASQELVHMNRGTYLHWYQQKPGQAPRLLIYKVSNRFPGVPDRFSGSGSGTDFTLKISRVEAEDVGVYYCAQGTSVPFTFGQGTKLEIK
B6: H183/L072 VL N28Q (antibody, name in Kabat numbering, V domains shown)
VH: QVQLVESGGGLVQPGRSLRLSCAASGFTFSNAWMHWVRQAPGKGLEWVAQIKDKGNAYAAYYAPSVKGRFTISRDDSKNSIYLQMNSLKTEDTAVYYCHYVHYASASTVLPAFGVDAWGQGTTVTVSS
VL: DIVMTQSPLSLPVTPGEPASISCQASQELVHMQRNTYLHWYQQKPGQAPRLLIYKVSNRFPGVPDRFSGSGSGTDFTLKISRVEAEDVGVYYCAQGTSVPFTFGQGTKLEIK
B7: H183/L072 VL M27eW (antibody, name in Kabat numbering, V domains shown)
VH: QVQLVESGGGLVQPGRSLRLSCAASGFTFSNAWMHWVRQAPGKGLEWVAQIKDKGNAYAAYYAPSVKGRFTISRDDSKNSIYLQMNSLKTEDTAVYYCHYVHYASASTVLPAFGVDAWGQGTTVTVSS
VL: DIVMTQSPLSLPVTPGEPASISCQASQELVHWNRNTYLHWYQQKPGQAPRLLIYKVSNRFPGVPDRFSGSGSGTDFTLKISRVEAEDVGVYYCAQGTSVPFTFGQGTKLEIK
B8: H183/L072 VL N30A (antibody, name in Kabat numbering, V domains shown)
VH: QVQLVESGGGLVQPGRSLRLSCAASGFTFSNAWMHWVRQAPGKGLEWVAQIKDKGNAYAAYYAPSVKGRFTISRDDSKNSIYLQMNSLKTEDTAVYYCHYVHYASASTVLPAFGVDAWGQGTTVTVSS
VL: DIVMTQSPLSLPVTPGEPASISCQASQELVHMNRATYLHWYQQKPGQAPRLLIYKVSNRFPGVPDRFSGSGSGTDFTLKISRVEAEDVGVYYCAQGTSVPFTFGQGTKLEIK
B9: H183/L072 VL N28S (antibody, name in Kabat numbering, V domains shown)
VH: QVQLVESGGGLVQPGRSLRLSCAASGFTFSNAWMHWVRQAPGKGLEWVAQIKDKGNAYAAYYAPSVKGRFTISRDDSKNSIYLQMNSLKTEDTAVYYCHYVHYASASTVLPAFGVDAWGQGTTVTVSS
VL: DIVMTQSPLSLPVTPGEPASISCQASQELVHMSRNTYLHWYQQKPGQAPRLLIYKVSNRFPGVPDRFSGSGSGTDFTLKISRVEAEDVGVYYCAQGTSVPFTFGQGTKLEIK
B10: H183/L072 VL M27eY (antibody, name in Kabat numbering, V domains shown)
VH: QVQLVESGGGLVQPGRSLRLSCAASGFTFSNAWMHWVRQAPGKGLEWVAQIKDKGNAYAAYYAPSVKGRFTISRDDSKNSIYLQMNSLKTEDTAVYYCHYVHYASASTVLPAFGVDAWGQGTTVTVSS
VL: DIVMTQSPLSLPVTPGEPASISCQASQELVHYNRNTYLHWYQQKPGQAPRLLIYKVSNRFPGVPDRFSGSGSGTDFTLKISRVEAEDVGVYYCAQGTSVPFTFGQGTKLEIK
B11: H183/L072 VL N28A (antibody, name in Kabat numbering, V domains shown)
VH: QVQLVESGGGLVQPGRSLRLSCAASGFTFSNAWMHWVRQAPGKGLEWVAQIKDKGNAYAAYYAPSVKGRFTISRDDSKNSIYLQMNSLKTEDTAVYYCHYVHYASASTVLPAFGVDAWGQGTTVTVSS
VL: DIVMTQSPLSLPVTPGEPASISCQASQELVHMARNTYLHWYQQKPGQAPRLLIYKVSNRFPGVPDRFSGSGSGTDFTLKISRVEAEDVGVYYCAQGTSVPFTFGQGTKLEIK
B12: H183/L072 VL N30I (antibody, name in Kabat numbering, V domains shown)
VH: QVQLVESGGGLVQPGRSLRLSCAASGFTFSNAWMHWVRQAPGKGLEWVAQIKDKGNAYAAYYAPSVKGRFTISRDDSKNSIYLQMNSLKTEDTAVYYCHYVHYASASTVLPAFGVDAWGQGTTVTVSS
VL: DIVMTQSPLSLPVTPGEPASISCQASQELVHMNRITYLHWYQQKPGQAPRLLIYKVSNRFPGVPDRFSGSGSGTDFTLKISRVEAEDVGVYYCAQGTSVPFTFGQGTKLEIK
B13: H183/L072 VL N28D (antibody, name in Kabat numbering, V domains shown)
VH: QVQLVESGGGLVQPGRSLRLSCAASGFTFSNAWMHWVRQAPGKGLEWVAQIKDKGNAYAAYYAPSVKGRFTISRDDSKNSIYLQMNSLKTEDTAVYYCHYVHYASASTVLPAFGVDAWGQGTTVTVSS
VL: DIVMTQSPLSLPVTPGEPASISCQASQELVHMDRNTYLHWYQQKPGQAPRLLIYKVSNRFPGVPDRFSGSGSGTDFTLKISRVEAEDVGVYYCAQGTSVPFTFGQGTKLEIK
B14: H183/L072 VL N28T (antibody, name in Kabat numbering, V domains shown)
VH: QVQLVESGGGLVQPGRSLRLSCAASGFTFSNAWMHWVRQAPGKGLEWVAQIKDKGNAYAAYYAPSVKGRFTISRDDSKNSIYLQMNSLKTEDTAVYYCHYVHYASASTVLPAFGVDAWGQGTTVTVSS
VL: DIVMTQSPLSLPVTPGEPASISCQASQELVHMTRNTYLHWYQQKPGQAPRLLIYKVSNRFPGVPDRFSGSGSGTDFTLKISRVEAEDVGVYYCAQGTSVPFTFGQGTKLEIK
B15: H183/L072 VL N30E (antibody, name in Kabat numbering, V domains shown)
VH: QVQLVESGGGLVQPGRSLRLSCAASGFTFSNAWMHWVRQAPGKGLEWVAQIKDKGNAYAAYYAPSVKGRFTISRDDSKNSIYLQMNSLKTEDTAVYYCHYVHYASASTVLPAFGVDAWGQGTTVTVSS
VL: DIVMTQSPLSLPVTPGEPASISCQASQELVHMNRETYLHWYQQKPGQAPRLLIYKVSNRFPGVPDRFSGSGSGTDFTLKISRVEAEDVGVYYCAQGTSVPFTFGQGTKLEIK
B16: H183/L072 VL N28K (antibody, name in Kabat numbering, V domains shown)
VH: QVQLVESGGGLVQPGRSLRLSCAASGFTFSNAWMHWVRQAPGKGLEWVAQIKDKGNAYAAYYAPSVKGRFTISRDDSKNSIYLQMNSLKTEDTAVYYCHYVHYASASTVLPAFGVDAWGQGTTVTVSS
VL: DIVMTQSPLSLPVTPGEPASISCQASQELVHMKRNTYLHWYQQKPGQAPRLLIYKVSNRFPGVPDRFSGSGSGTDFTLKISRVEAEDVGVYYCAQGTSVPFTFGQGTKLEIK
B17: H183/L072 VL N28H (antibody, name in Kabat numbering, V domains shown)
VH: QVQLVESGGGLVQPGRSLRLSCAASGFTFSNAWMHWVRQAPGKGLEWVAQIKDKGNAYAAYYAPSVKGRFTISRDDSKNSIYLQMNSLKTEDTAVYYCHYVHYASASTVLPAFGVDAWGQGTTVTVSS
VL: DIVMTQSPLSLPVTPGEPASISCQASQELVHMHRNTYLHWYQQKPGQAPRLLIYKVSNRFPGVPDRFSGSGSGTDFTLKISRVEAEDVGVYYCAQGTSVPFTFGQGTKLEIK
B18: H183/L072 VL N30H (antibody, name in Kabat numbering, V domains shown)
VH: QVQLVESGGGLVQPGRSLRLSCAASGFTFSNAWMHWVRQAPGKGLEWVAQIKDKGNAYAAYYAPSVKGRFTISRDDSKNSIYLQMNSLKTEDTAVYYCHYVHYASASTVLPAFGVDAWGQGTTVTVSS
VL: DIVMTQSPLSLPVTPGEPASISCQASQELVHMNRHTYLHWYQQKPGQAPRLLIYKVSNRFPGVPDRFSGSGSGTDFTLKISRVEAEDVGVYYCAQGTSVPFTFGQGTKLEIK
B19: H183/L072 VL N28G (antibody, name in Kabat numbering, V domains shown)
VH: QVQLVESGGGLVQPGRSLRLSCAASGFTFSNAWMHWVRQAPGKGLEWVAQIKDKGNAYAAYYAPSVKGRFTISRDDSKNSIYLQMNSLKTEDTAVYYCHYVHYASASTVLPAFGVDAWGQGTTVTVSS
VL: DIVMTQSPLSLPVTPGEPASISCQASQELVHMGRNTYLHWYQQKPGQAPRLLIYKVSNRFPGVPDRFSGSGSGTDFTLKISRVEAEDVGVYYCAQGTSVPFTFGQGTKLEIK
B20: H183/L072 VL N30D (antibody, name in Kabat numbering, V domains shown)
VH: QVQLVESGGGLVQPGRSLRLSCAASGFTFSNAWMHWVRQAPGKGLEWVAQIKDKGNAYAAYYAPSVKGRFTISRDDSKNSIYLQMNSLKTEDTAVYYCHYVHYASASTVLPAFGVDAWGQGTTVTVSS
VL: DIVMTQSPLSLPVTPGEPASISCQASQELVHMNRDTYLHWYQQKPGQAPRLLIYKVSNRFPGVPDRFSGSGSGTDFTLKISRVEAEDVGVYYCAQGTSVPFTFGQGTKLEIK

The target of the assay is T1, Human CD3eg linker (human).
T1 construct: Single-chain construct; also called recombinant human CD3
T1 chain: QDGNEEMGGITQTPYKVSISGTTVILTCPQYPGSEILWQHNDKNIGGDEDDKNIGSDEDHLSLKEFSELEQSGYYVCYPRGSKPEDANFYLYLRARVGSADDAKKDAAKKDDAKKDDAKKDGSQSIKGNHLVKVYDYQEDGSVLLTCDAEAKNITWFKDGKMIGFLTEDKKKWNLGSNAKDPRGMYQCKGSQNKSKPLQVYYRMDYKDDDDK
Briefly: SPR; fold vs parent H183/L072. (In general: In SPR one partner is held on a chip, and binding of the other changes the refractive index at the surface.)
As for B1, the “fold change of affinity” value came to 1.2 fold.

Turning to B2, the “fold change of affinity” value came out at 0 fold.

As to B3, the “fold change of affinity” value turned out to be 0.9 fold.

As to B4, the “fold change of affinity” value turned out to be 0.8 fold.

On to B5, for which the “fold change of affinity” value came to 0 fold.

With B6, the “fold change of affinity” value was found to be 0 fold.

With B7, the “fold change of affinity” value was 1 fold.

As to B8, the “fold change of affinity” value came to 0.3 fold.

Regarding B9, the “fold change of affinity” value was determined as 0 fold.

In the case of B10, the “fold change of affinity” value was determined as 0.9 fold.

With B11, the “fold change of affinity” value stood at 0 fold.

Turning to B12, the “fold change of affinity” value is 0.5 fold.

As to B13, the “fold change of affinity” value was found to be 0 fold.

For B14, the “fold change of affinity” value was determined as 0 fold.

Take B15: the “fold change of affinity” value came out at 0.3 fold.

As to B16, the “fold change of affinity” value was determined as 0 fold.

Regarding B17, the “fold change of affinity” value came out at 0 fold.

With B18, the “fold change of affinity” value was found to be 0.8 fold.

For B19, the “fold change of affinity” value was found to be 0 fold.

For the molecule B20, the “fold change of affinity” value was 0.1 fold.
